Measurements published in paper PMC10616196, “A marine cryptochrome with an inverse photo-oligomerization mechanism” (Nature Communications, 2023).
One block for each molecule: values may come before it.

Columns and labels:
[1] = biological target: Platynereis dumerilii L-CRY (PdLCry), wildtype (Platynereis dumerilii); assay: SEC; analytical SEC with inline UV/Vis, Superdex 200 Increase 5/150 GL, far-red light (dark) conditions; 7 µL at 5 mg mL^-1; 25 mM Bis-tris propane pH 8.0, 150 mM NaCl, 1 mM TCEP
[2] = biological target: Platynereis dumerilii L-CRY (PdLCry), wildtype (Platynereis dumerilii); assay: cryo-EM structure; dark state: vitrified under far-red light; 0.7 mg mL^-1 in 25 mM Bis-tris propane pH 8.0, 150 mM NaCl, 1 mM TCEP, 0.01% fluorinated octyl maltoside; 2D classification and C2 refinement
[3] = biological target: Platynereis dumerilii L-CRY (PdLCry), wildtype (Platynereis dumerilii); assay: cryo-EM structure; blue light state: grids illuminated for 30 s with a 455 nm LED, vitrified within less than 5 s; 0.7 mg mL^-1 in 25 mM Bis-tris propane pH 8.0, 150 mM NaCl, 1 mM TCEP; 2D classification, C1 map filtered to 8 Å
PdLCry (L-CRY) [4] = biological target: T1, PdLCry (L-CRY) (Platynereis dumerilii, UniProt Z9ZPX6J9J5); assay: cryo-EM structure of the complex, […] A; assay type: binding; conditions: dark state, far-red light; pH 8.0; homodimer; near stoichiometric FAD occupancy; non-covalent
T1 construct: full length, N-terminal His6 tag, expressed in Sf9 insect cells (pCoofy27, baculovirus); 565 residues, model 31-556; homodimer in dark, monomer under blue light
T1 sequence (Z9ZPX6J9J5 1-565): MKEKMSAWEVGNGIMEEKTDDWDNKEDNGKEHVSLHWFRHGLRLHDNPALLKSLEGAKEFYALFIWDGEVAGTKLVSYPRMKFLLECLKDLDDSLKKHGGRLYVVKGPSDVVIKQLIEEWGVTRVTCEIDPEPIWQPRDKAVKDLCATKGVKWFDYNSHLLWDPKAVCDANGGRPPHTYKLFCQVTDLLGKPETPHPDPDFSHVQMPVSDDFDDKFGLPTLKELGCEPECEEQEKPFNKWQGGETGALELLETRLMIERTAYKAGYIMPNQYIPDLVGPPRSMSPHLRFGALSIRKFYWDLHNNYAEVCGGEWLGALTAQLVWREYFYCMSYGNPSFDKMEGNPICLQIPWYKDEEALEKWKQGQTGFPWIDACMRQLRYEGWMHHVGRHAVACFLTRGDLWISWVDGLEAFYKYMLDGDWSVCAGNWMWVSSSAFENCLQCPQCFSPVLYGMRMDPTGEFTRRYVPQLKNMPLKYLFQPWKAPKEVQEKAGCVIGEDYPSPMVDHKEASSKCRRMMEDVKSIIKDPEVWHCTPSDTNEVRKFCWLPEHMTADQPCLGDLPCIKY

PdLCry (L-CRY) [5] = biological target: T2, PdLCry (L-CRY) (Platynereis dumerilii, UniProt Z9ZPX6J9J5, Y352A); assay: UV/Vis spectroscopy of FAD photoreduction; assay type: binding; conditions: naturalistic sunlight, on ice; pH 8.0; co-purified FAD
T2 construct: full length, N-terminal His6 tag, expressed in Sf9 insect cells (pCoofy27, baculovirus); 565 residues, model 31-556; homodimer in dark, monomer under blue light
T2 sequence (Z9ZPX6J9J5 1-565 Y352A): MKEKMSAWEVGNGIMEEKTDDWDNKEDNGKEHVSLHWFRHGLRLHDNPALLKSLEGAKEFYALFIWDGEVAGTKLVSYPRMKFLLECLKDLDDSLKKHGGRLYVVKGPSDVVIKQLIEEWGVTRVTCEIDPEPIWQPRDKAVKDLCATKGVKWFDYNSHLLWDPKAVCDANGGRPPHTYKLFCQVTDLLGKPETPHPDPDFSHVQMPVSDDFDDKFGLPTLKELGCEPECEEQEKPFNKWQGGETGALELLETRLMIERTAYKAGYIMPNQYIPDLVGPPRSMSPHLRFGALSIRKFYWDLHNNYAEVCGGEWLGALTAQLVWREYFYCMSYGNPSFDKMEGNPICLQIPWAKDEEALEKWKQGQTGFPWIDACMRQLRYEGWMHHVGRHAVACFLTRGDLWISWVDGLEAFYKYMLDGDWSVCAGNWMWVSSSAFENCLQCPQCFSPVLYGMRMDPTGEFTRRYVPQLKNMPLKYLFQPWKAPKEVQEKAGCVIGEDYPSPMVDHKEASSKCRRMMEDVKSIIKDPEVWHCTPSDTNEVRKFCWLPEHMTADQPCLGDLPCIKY

PdLCry (L-CRY) [6] = biological target: T3, PdLCry (L-CRY) (Platynereis dumerilii, UniProt Z9ZPX6J9J5, Y352D); assay: UV/Vis spectroscopy of FAD photoreduction; assay type: binding; conditions: naturalistic sunlight, on ice; pH 8.0; co-purified FAD
T3 construct: full length, N-terminal His6 tag, expressed in Sf9 insect cells (pCoofy27, baculovirus); 565 residues, model 31-556; homodimer in dark, monomer under blue light
T3 sequence (Z9ZPX6J9J5 1-565 Y352D): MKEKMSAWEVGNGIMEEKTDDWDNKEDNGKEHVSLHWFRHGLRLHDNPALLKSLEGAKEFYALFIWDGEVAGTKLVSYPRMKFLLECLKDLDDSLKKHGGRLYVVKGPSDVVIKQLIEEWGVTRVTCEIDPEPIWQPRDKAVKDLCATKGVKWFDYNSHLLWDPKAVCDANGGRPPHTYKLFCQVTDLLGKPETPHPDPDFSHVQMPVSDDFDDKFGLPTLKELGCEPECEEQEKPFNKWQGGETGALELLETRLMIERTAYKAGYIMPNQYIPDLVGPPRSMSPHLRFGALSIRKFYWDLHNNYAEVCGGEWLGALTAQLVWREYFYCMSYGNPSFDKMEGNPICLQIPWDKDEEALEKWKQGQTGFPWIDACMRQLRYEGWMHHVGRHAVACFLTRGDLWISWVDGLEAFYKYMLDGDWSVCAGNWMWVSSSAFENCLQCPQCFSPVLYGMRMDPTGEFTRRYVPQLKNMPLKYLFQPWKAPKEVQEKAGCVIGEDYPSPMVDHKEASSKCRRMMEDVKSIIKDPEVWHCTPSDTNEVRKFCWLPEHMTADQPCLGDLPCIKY

PdLCry^Y352A = biological target: T4, PdLCry^Y352A (Platynereis dumerilii); assay: SEC; final SEC step of the purification in dark or dim red light (Superdex S200 10/300 GL or HiLoad S200 16/60; 25 mM Bis-tris propane pH 8.0, 150 mM NaCl, 5% glycerol, 1 mM TCEP); conditions: both partners purified
T4 chain: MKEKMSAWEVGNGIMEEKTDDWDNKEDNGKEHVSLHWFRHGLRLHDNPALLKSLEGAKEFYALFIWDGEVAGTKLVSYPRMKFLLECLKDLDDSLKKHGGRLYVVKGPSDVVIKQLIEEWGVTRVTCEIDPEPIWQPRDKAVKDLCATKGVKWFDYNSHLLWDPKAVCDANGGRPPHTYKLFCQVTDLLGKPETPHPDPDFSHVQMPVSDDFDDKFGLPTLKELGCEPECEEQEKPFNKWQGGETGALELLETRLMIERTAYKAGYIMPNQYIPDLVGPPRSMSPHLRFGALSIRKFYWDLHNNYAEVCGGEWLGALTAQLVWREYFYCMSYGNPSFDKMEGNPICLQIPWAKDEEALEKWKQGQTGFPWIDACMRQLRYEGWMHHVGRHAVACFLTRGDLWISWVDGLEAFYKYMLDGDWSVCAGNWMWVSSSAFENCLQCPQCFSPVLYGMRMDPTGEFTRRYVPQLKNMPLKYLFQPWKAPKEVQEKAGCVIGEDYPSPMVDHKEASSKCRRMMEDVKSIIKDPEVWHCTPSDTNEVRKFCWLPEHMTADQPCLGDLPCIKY

PdLCry^Y352D = biological target: T5, PdLCry^Y352D (Platynereis dumerilii); assay: as above; conditions: both partners purified
T5 chain: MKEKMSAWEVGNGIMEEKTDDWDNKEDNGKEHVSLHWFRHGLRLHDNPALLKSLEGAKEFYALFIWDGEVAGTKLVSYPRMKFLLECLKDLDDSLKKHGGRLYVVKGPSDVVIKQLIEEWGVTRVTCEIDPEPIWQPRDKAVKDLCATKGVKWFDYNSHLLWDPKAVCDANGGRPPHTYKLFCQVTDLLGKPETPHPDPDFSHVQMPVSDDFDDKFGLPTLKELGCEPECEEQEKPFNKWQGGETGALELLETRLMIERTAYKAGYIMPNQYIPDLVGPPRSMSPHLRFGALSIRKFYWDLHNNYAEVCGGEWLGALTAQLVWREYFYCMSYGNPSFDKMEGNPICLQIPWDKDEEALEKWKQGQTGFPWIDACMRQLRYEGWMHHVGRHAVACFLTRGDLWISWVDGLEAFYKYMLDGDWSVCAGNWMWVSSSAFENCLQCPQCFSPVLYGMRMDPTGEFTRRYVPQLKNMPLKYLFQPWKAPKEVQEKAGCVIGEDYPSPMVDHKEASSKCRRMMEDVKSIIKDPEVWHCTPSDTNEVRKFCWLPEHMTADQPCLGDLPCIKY

stoichiometry N [1]: 2 | percent of the protein present as a dimer [2]: 80% | stoichiometry N [2]: 2 | percent of the protein monomeric [3]: > 90%
Molecule: Platynereis dumerilii L-CRY (PdLCry), wildtype (natural protein)

Molecule: Cc1cc2nc3c(=O)[nH]c(=O)nc-3n(C[C@H](O)[C@H](O)[C@H](O)COP(=O)(O)OP(=O)(O)OC[C@H]3O[C@@H](n4cnc5c(N)ncnc54)[C@H](O)[C@@H]3O)c2cc1C [flavin adenine dinucleotide]
cryo-EM structure of the complex, 2.6 A (PdLCry (L-CRY) [4]): We observe a near stochiometric occupancy of the ligand FAD | UV/Vis spectroscopy of FAD photoreduction (PdLCry (L-CRY) [5]): both mutations lead to a less efficient FAD photoreduction under illumination conditions mimicking naturalistic sunlight | UV/Vis spectroscopy of FAD photoreduction (PdLCry (L-CRY) [6]): both mutations lead to a less efficient FAD photoreduction under illumination conditions mimicking naturalistic sunlight

stoichiometry N (PdLCry^Y352A): 2
B1: PdLCry^Y352A (natural protein)
chain: MKEKMSAWEVGNGIMEEKTDDWDNKEDNGKEHVSLHWFRHGLRLHDNPALLKSLEGAKEFYALFIWDGEVAGTKLVSYPRMKFLLECLKDLDDSLKKHGGRLYVVKGPSDVVIKQLIEEWGVTRVTCEIDPEPIWQPRDKAVKDLCATKGVKWFDYNSHLLWDPKAVCDANGGRPPHTYKLFCQVTDLLGKPETPHPDPDFSHVQMPVSDDFDDKFGLPTLKELGCEPECEEQEKPFNKWQGGETGALELLETRLMIERTAYKAGYIMPNQYIPDLVGPPRSMSPHLRFGALSIRKFYWDLHNNYAEVCGGEWLGALTAQLVWREYFYCMSYGNPSFDKMEGNPICLQIPWAKDEEALEKWKQGQTGFPWIDACMRQLRYEGWMHHVGRHAVACFLTRGDLWISWVDGLEAFYKYMLDGDWSVCAGNWMWVSSSAFENCLQCPQCFSPVLYGMRMDPTGEFTRRYVPQLKNMPLKYLFQPWKAPKEVQEKAGCVIGEDYPSPMVDHKEASSKCRRMMEDVKSIIKDPEVWHCTPSDTNEVRKFCWLPEHMTADQPCLGDLPCIKY
modifications: FAD bound; dimer in dark / FAD bound; dimer in dark

stoichiometry N (PdLCry^Y352D): 2
B2: PdLCry^Y352D (natural protein)
chain: MKEKMSAWEVGNGIMEEKTDDWDNKEDNGKEHVSLHWFRHGLRLHDNPALLKSLEGAKEFYALFIWDGEVAGTKLVSYPRMKFLLECLKDLDDSLKKHGGRLYVVKGPSDVVIKQLIEEWGVTRVTCEIDPEPIWQPRDKAVKDLCATKGVKWFDYNSHLLWDPKAVCDANGGRPPHTYKLFCQVTDLLGKPETPHPDPDFSHVQMPVSDDFDDKFGLPTLKELGCEPECEEQEKPFNKWQGGETGALELLETRLMIERTAYKAGYIMPNQYIPDLVGPPRSMSPHLRFGALSIRKFYWDLHNNYAEVCGGEWLGALTAQLVWREYFYCMSYGNPSFDKMEGNPICLQIPWDKDEEALEKWKQGQTGFPWIDACMRQLRYEGWMHHVGRHAVACFLTRGDLWISWVDGLEAFYKYMLDGDWSVCAGNWMWVSSSAFENCLQCPQCFSPVLYGMRMDPTGEFTRRYVPQLKNMPLKYLFQPWKAPKEVQEKAGCVIGEDYPSPMVDHKEASSKCRRMMEDVKSIIKDPEVWHCTPSDTNEVRKFCWLPEHMTADQPCLGDLPCIKY
modifications: FAD bound; dimer in dark / FAD bound; dimer in dark
